The text below walks through data of patent publication EP3443010B1.

Values joined by “and” are separate entries in the source; they are usually repeats but may differ in a detail not shown here. Identical values can stand only once.

For the experiment, the target named is recombinant hSIRPa (Sino Biologicals, reference 10975-H08H) (human) (UniProt P78324). As to the kind of experiment: ELISA, hSIRPa (Sino 10975-H08H) coated at 0.5 ug/ml, anti-mouse Fc detection. (In general: ELISA stands for enzyme-linked immunosorbent assay.)

The EC50 is the midpoint of the concentration-response curve.

recombinant hSIRPa (Sino Biologicals, reference 10975-H08H) (human), sequence (P78324 other isoform, or with tags, fused parts or gaps H08H H08H): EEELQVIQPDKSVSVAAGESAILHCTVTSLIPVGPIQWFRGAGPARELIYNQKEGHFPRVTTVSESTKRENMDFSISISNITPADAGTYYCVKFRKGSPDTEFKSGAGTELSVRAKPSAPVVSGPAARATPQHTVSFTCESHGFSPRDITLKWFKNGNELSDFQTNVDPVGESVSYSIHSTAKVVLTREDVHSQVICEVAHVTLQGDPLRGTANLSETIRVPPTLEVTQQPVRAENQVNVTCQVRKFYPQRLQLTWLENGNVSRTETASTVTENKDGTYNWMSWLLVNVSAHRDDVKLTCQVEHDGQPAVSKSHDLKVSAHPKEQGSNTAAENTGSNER

SE5A5 (antibody): the EC50 is 0.16 nM and 0.024 µg/mL.
